Laboratory results published in patent US9937235B2, “Lipidated peptides as anti-obesity agents” (USTAV ORGANICKE CHEMIE A BIOCHEMIE AKADEMIE VED CR, V.V.I, priority 2012, dated 2018).
Where a SMILES comes first, the peptide text is derived from it. Where no end group is shown, it is not given here. [ ]: non-standard residue; d: D form. The star is where a group is joined. Phe(F5) = N[C@@H](Cc1c(F)c(F)c(F)c(F)c1F)C(=O)O; Palmitoyl = CCCCCCCCCCCCCCCC(=O)*; Myristoyl = CCCCCCCCCCCCCC(=O)*; Nle = CCCC[C@H](N)C(=O)O; Dap = NC[C@H](N)C(=O)O

T1: rat PrRP receptor (GPR10) in RC-4B/C cells (Rattus norvegicus, UniProt Q64121)
T1 construct: host or cells: RC-4B/C rat pituitary cell line
T1 sequence (Q64121 1-370): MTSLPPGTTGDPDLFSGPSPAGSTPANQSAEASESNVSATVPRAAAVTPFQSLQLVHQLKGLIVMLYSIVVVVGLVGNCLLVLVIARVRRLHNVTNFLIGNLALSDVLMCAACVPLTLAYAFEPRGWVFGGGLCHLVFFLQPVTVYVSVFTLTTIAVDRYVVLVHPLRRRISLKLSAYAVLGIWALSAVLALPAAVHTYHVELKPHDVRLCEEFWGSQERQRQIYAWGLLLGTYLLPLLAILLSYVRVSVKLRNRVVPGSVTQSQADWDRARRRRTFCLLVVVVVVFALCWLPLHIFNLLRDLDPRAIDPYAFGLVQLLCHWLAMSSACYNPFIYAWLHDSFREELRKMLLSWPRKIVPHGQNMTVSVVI

T2: human PrRP receptor, GPR10 (Homo sapiens, UniProt P49683)
T2 construct: host or cells: CHO cells
T2 sequence (P49683 1-370): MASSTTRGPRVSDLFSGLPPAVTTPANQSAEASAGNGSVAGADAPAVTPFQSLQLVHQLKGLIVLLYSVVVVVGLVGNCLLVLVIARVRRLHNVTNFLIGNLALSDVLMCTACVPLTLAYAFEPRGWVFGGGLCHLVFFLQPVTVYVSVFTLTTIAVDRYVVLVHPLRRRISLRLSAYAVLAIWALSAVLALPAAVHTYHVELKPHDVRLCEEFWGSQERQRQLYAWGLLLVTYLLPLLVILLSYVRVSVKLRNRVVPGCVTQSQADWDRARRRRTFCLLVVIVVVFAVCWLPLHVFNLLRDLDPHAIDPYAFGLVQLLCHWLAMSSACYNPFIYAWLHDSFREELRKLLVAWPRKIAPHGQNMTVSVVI

T3: rat PrRP receptor in RC-4B/C cells (rat, UniProt Q64121 1-370)
T3 construct: whole, on cells; also called the rat receptor; GPR10
T3 sequence (looked up): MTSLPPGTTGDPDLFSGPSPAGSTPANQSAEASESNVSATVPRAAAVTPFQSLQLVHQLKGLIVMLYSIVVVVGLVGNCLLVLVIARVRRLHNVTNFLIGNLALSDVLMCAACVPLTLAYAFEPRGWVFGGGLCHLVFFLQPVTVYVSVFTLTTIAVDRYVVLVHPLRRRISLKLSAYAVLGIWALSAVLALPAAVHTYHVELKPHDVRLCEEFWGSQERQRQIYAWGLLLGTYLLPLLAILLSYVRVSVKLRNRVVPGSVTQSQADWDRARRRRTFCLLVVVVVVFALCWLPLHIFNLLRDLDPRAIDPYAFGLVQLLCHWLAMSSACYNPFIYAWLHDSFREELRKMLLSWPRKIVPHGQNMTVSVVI

T4: human PrRP receptor, GPR10, transfected in CHO cells (human, UniProt P49683 1-370)
T4 construct: whole, on cells; also called human GPR10 receptor; the human receptor GPR10 in CHO cells
T4 sequence (looked up): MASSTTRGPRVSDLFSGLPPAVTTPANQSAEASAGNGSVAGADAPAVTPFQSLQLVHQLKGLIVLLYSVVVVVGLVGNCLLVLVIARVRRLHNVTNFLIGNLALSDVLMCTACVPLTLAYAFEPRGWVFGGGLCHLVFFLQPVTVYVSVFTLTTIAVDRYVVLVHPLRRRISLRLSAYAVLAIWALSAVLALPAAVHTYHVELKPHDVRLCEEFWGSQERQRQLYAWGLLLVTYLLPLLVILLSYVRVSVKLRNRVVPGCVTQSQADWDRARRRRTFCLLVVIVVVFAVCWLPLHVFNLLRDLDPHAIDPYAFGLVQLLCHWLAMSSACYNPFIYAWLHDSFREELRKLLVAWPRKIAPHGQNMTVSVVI


Columns and labels:
[1] = target: T1, rat PrRP receptor (GPR10) in RC-4B/C cells; assay: Competitive binding to rat pituitary RC-4B/C cells; conditions: rat RC-4B/C cells, Table 5; read-out: C-4B/C cells ^25I-rat PrRP31 Ki
fasted C57BL/6 mice = assay: Food intake in fasted mice after SC administration; format: in vivo, mouse; conditions: fasted C57BL/6 mice, 5 mg/kg SC, 45 min
Outline: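 Male C57BL/6 mice, food-deprived 17 h, received saline, PrRP or lipidated analogs either SC at 1-10 mg/kg or ICV into the third ventricle at 4 nmol/mouse.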

[2] = target: T2, human PrRP receptor, GPR10; assay: Competitive binding to CHO cells with transfected human GPR10; conditions: CHO cells with transfected human GPR10, human ^125I—PrRP31
Protocol: Competitive binding experiments were performed according to Motulsky and Neubig (Motulsky, A., et al., “Analyzing radioligand binding data,” Curr Protoc Neurosci, Chapter 7, Unit 7.5, 2002).
CHO cells with transfected human PrRP receptor, GPR10 (Perkin Elmer, USA) were grown on 24-well plates coated with polyethyleneimine. The cells were grown to the optimal density of 40-80 thousand cells per well. The following agents were used for the experiment: binding buffer (25 mmol·l^−1 Tris, pH 7.4; 118 mmol·l^−1 NaCl, 10 mmol·l^−1 MgCl2, 1 mmol·l^−1 CaCl2, 5.5 mmol·l^−1 glucose, 0.5 mg/ml BSA), unlabelled analogs of PrRP of final concentration within 10^−11 to 10^−4 mol·l^−1, and human ^125I—PrRP31 of final concentration of 5×10^−11 mol·l^−1.
(§1) Plates were incubated for 60 minutes at room temperature. After incubation, the cells were solubilized in 0.1 mol/l solution of NaOH and the radioactivity bound to the cells was counted using a γ-counter. The experiments were performed in duplicate and repeated at least three times.
For evaluation of competitive binding experiments, the program Graph Pad Prism Software (San Diego, Calif., USA) was used. A method of nonlinear regression assuming one-site binding was used.

[3] = target: T3, rat PrRP receptor in RC-4B/C cells; assay: competition with 125I-rat PrRP31 on RC-4B/C cells
[4] = target: T3, rat PrRP receptor in RC-4B/C cells; assay: competition with 125I-human PrRP31 on RC-4B/C cells; Ki by Cheng-Prusoff
[5] = target: T3, rat PrRP receptor in RC-4B/C cells; assay: competition with 125I-rat PrRP31 on RC-4B/C cells; Ki by Cheng-Prusoff
Protocol: The rat pituitary cell line RC-4B/C (ATCC, Manassas, USA) was grown on 24-well plates which had their bottom coated with polyethyleneimine. The cells were grown to the optimal density of 300-450 thousand per well.
as §1

[6] = target: T4, human PrRP receptor, GPR10, transfected …; assay: competition with 125I-human PrRP31 on CHO cells with transfected human GPR10
Outline: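 Incubation lasted 60 min at room temperature. Cells were then solubilised in 0.1 mol/l NaOH and bound radioactivity γ-counted; duplicates, at least three repeats.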

Ki [1] [nM] | Ki [2] [nM] | Ki [3] [nM] | Ki [4] [nM] | Ki [5] [nM] | Ki [6] [nM] | Molecule | Food intake in mice (5 mg/kg SC) % saline-treated group (45 min) (fasted C57BL/6 mice) [%]
0.51 ± 0.08 | 1.92 ± 0.53 |  |  |  |  | CCCCCCCCCCCCCCCC(=O)N[C@@H](CO)C(=O)N[C@@H](CCCNC(=N)N)C(=O)N[C@@H](C)C(=O)N[C@@H](Cc1c[nH]cn1)C(=O)N[C@@H](CCC(N)=O)C(=O)N[C@@H](Cc1c[nH]cn1)C(=O)N[C@@H](CO)C(=O)N[C@@H](CCCC)C(=O)N[C@@H](CCC(=O)O)C(=O)N[C@H](C(=O)N[C@@H](CCCNC(=N)N)C(=O)N[C@H](C(=O)N1CCC[C@H]1C(=O)N[C@@H](CC(=O)O)C(=O)N[C@H](C(=O)N[C@@H](CC(N)=O)C(=O)N1CCC[C@H]1C(=O)N[C@@H](C)C(=O)N[C@@H](Cc1c[nH]c2ccccc12)C(=O)N[C@@H](Cc1ccc(O)cc1)C(=O)N[C@H](C(=O)NCC(=O)N[C@@H](CCCNC(=N)N)C(=O)NCC(=O)N[C@H](C(=O)N[C@@H](CCCNC(=N)N)C(=O)N1CCC[C@H]1C(=O)N[C@H](C(=O)NCC(=O)N[C@@H](CCCNC(=N)N)C(=O)N[C@@H](Cc1c(F)c(F)c(F)c(F)c1F)C(N)=O)C(C)C)[C@@H](C)CC)[C@@H](C)O)[C@@H](C)CC)[C@@H](C)O)[C@@H](C)O [Analog 33] (Palmitoyl-SRAHQHS[Nle]ETRTPDINPAWYTGRGIRPVGR[Phe(F5)]-NH2) | 41
 |  | 1.78 | 3.01 | 1.54 |  | SRTHRHSMEIRTPDINPAWYASRGIRPVGRF-NH2 (also called hPrRP31; analog no; 50) [Human PrRP31] | 
 |  |  | 2 | 2.28 |  | [Dap]RTHRHS[Nle]EIRTPDINPAWYASRGIRPVGRF-NH2 (N-terminus assumed; SMILES CCCC[C@H](NC(=O)[C@H](CO)NC(=O)[C@H](Cc1c[nH]cn1)NC(=O)[C@H](CCCNC(=N)N)NC(=O)[C@H](Cc1c[nH]cn1)NC(=O)[C@@H](NC(=O)[C@H](CCCNC(=N)N)NC(=O)[C@@H](N)CN)[C@@H](C)O)C(=O)N[C@@H](CCC(=O)O)C(=O)N[C@H](C(=O)N[C@@H](CCCNC(=N)N)C(=O)N[C@H](C(=O)N1CCC[C@H]1C(=O)N[C@@H](CC(=O)O)C(=O)N[C@H](C(=O)N[C@@H](CC(N)=O)C(=O)N1CCC[C@H]1C(=O)N[C@@H](C)C(=O)N[C@@H](Cc1c[nH]c2ccccc12)C(=O)N[C@@H](Cc1ccc(O)cc1)C(=O)N[C@@H](C)C(=O)N[C@@H](CO)C(=O)N[C@@H](CCCNC(=N)N)C(=O)NCC(=O)N[C@H](C(=O)N[C@@H](CCCNC(=N)N)C(=O)N1CCC[C@H]1C(=O)N[C@H](C(=O)NCC(=O)N[C@@H](CCCNC(=N)N)C(=O)N[C@@H](Cc1ccccc1)C(N)=O)C(C)C)[C@@H](C)CC)[C@@H](C)CC)[C@@H](C)O)[C@@H](C)CC, analog of human PrRP31) [analog no. 11] | 
 |  | 0.48 | 0.66 | 0.41 | 4.33 | Myristoyl-TPDINPAWYASRGIRPVGRF-NH2 (SMILES CCCCCCCCCCCCCC(=O)N[C@H](C(=O)N1CCC[C@H]1C(=O)N[C@@H](CC(=O)O)C(=O)N[C@H](C(=O)N[C@@H](CC(N)=O)C(=O)N1CCC[C@H]1C(=O)N[C@@H](C)C(=O)N[C@@H](Cc1c[nH]c2ccccc12)C(=O)N[C@@H](Cc1ccc(O)cc1)C(=O)N[C@@H](C)C(=O)N[C@@H](CO)C(=O)N[C@@H](CCCNC(=N)N)C(=O)NCC(=O)N[C@H](C(=O)N[C@@H](CCCNC(=N)N)C(=O)N1CCC[C@H]1C(=O)N[C@H](C(=O)NCC(=O)N[C@@H](CCCNC(=N)N)C(=O)N[C@@H](Cc1ccccc1)C(N)=O)C(C)C)[C@@H](C)CC)[C@@H](C)CC)[C@@H](C)O, also called analog no; 13) [myristoylated human PrRP20 (analog no. 55)] | 
